Laboratory results: patent US20160235855A1, “STABLE AQUEOUS PARENTERAL PHARMACEUTICAL COMPOSITIONS OF INSULINOTROPIC PEPTIDES” (SHANGHAI BENEMAE PHARMACEUTICAL CORPORATION, priority 2013, published 2016)
Entries after “also recorded” stand apart in the source; their conditions may differ.

What was measured:
[1] = Observation of appearance with the naked eye (physical stability); type: physicochemical
Excerpt: Each buffer was also designed to have 4 salt concentrations.
If there was evident precipitation or turbidity, no further determination would be carried out. If the samples had no abnormal phenomena observable with the naked eye, the samples were taken and subjected to determination of absorption values at 360 nm and HPLC detection, wherein the former investigated the physical stability, and the latter investigated the chemical stability.
The solutions were mixed uniformly, filtered through a 0.22 μm filter membrane, dispensed into 2 mL Penicillin bottles, and placed at different temperatures for investigation. A series of sampling time points were arranged. After sampling, the samples were firstly observed with the naked eye for appearance.
The solutions were adjusted to pH 3.5-4.0, mixed uniformly, filtered through a 0.22 μm filter membrane, dispensed into 2 mL Penicillin bottles, and placed at different temperatures for investigation. A series of sampling time points were arranged. The samples were firstly observed with the naked eye for appearance. If no evident turbidity or gelatination was occurred, the sample was considered as qualified as for physical stability, and then subjected to HPLC detection to analyze the chemical stability.

[2] = HPLC analysis of GLP-1 on C18 column (chemical stability); type: physicochemical; settings: 8 days
Method: An investigation method for chemical stability: a test sample was taken, and analyzed on a C18 column (3.5 μm, 300 Å, φ 4.6×50 mm). An analytical method: mobile phase A was 0.1% trifluoroacetic acid, B was the A phase with 80% acetonitrile added therein, the detection wavelength was 280 nm, 60% A and 40% B were balanced for 3 min, and the sample amount was 2 to 5 μL. Elution was performed with linear gradient for 8 min with 40% to 53% of the B phase and 60% to 47% of the A phase. Peak area was calculated using the normalization method. A standard sample was determined with the same method. The peptide concentration in the sample was calculated by comparison with the standard sample, and compared with the determination result at day 0, to calculate the retention of the peptide content in the sample. A higher retention of the peptide content indicated better chemical stability.
The HPLC detection method was performed according to Example 1.
The formulation method and HPLC detection method of the pharmaceutical compositions were performed according to Example 5.

Glucagon-like peptide 1 [GLP-1]
Situations of samples after preparation ([1]; 20 mmol/L Na2HPO4-NaH2PO4 pH 7.0, NaCl 0 mmol/L): Clear and transparent
Situations of samples after preparation ([1]; 20 mmol/L Na2HPO4-NaH2PO4 pH 7.0, NaCl 20 mmol/L): Clear and transparent
Situations of samples after preparation ([1]; 20 mmol/L Na2HPO4-NaH2PO4 pH 7.0, NaCl 150 mmol/L): Clear and transparent
Situations of samples after preparation ([1]; 20 mmol/L Na2HPO4-NaH2PO4 pH 7.0, NaCl 500 mmol/L): Clear and transparent
Situations of samples after preparation ([1]; 20 mmol/L Na2HPO4-NaH2PO4 pH 7.5, NaCl 0 mmol/L): Clear and transparent
Situations of samples after preparation ([1]; 20 mmol/L Na2HPO4-NaH2PO4 pH 7.5, NaCl 20 mmol/L): Clear and transparent
Situations of samples after preparation ([1]; 20 mmol/L Na2HPO4-NaH2PO4 pH 7.5, NaCl 150 mmol/L): Clear and transparent
Situations of samples after preparation ([1]; 20 mmol/L Na2HPO4-NaH2PO4 pH 7.5, NaCl 500 mmol/L): Clear and transparent
Situations of samples after preparation ([1]; 20 mmol/L NaAC-HAC pH 3.0, NaCl 0 mmol/L): Clear and transparent
Situations of samples after preparation ([1]; 20 mmol/L NaAC-HAC pH 3.0, NaCl 20 mmol/L): Clear and transparent
Situations of samples after preparation ([1]; 20 mmol/L NaAC-HAC pH 3.0, NaCl 150 mmol/L): Clear and transparent
Situations of samples after preparation ([1]; 20 mmol/L NaAC-HAC pH 3.0, NaCl 500 mmol/L): Clear and transparent
Situations of samples after preparation ([1]; 20 mmol/L NaAC-HAC pH 3.5, NaCl 0 mmol/L): Clear and transparent
Situations of samples after preparation ([1]; 20 mmol/L NaAC-HAC pH 3.5, NaCl 20 mmol/L): Clear and transparent
Situations of samples after preparation ([1]; 20 mmol/L NaAC-HAC pH 3.5, NaCl 150 mmol/L): Clear and transparent
Situations of samples after preparation ([1]; 20 mmol/L NaAC-HAC pH 3.5, NaCl 500 mmol/L): Turbid
Situations of samples after preparation ([1]; 20 mmol/L NaAC-HAC pH 4.0, NaCl 0 mmol/L): Clear and transparent
Situations of samples after preparation ([1]; 20 mmol/L NaAC-HAC pH 4.0, NaCl 20 mmol/L): Clear and transparent
Situations of samples after preparation ([1]; 20 mmol/L NaAC-HAC pH 4.0, NaCl 150 mmol/L): Clear and transparent
Situations of samples after preparation ([1]; 20 mmol/L NaAC-HAC pH 4.0, NaCl 500 mmol/L): Turbid
Situations of samples after preparation ([1]; 20 mmol/L NaAC-HAC pH 4.5, NaCl 0 mmol/L): Difficult to filter
Situations of samples after preparation ([1]; 20 mmol/L NaAC-HAC pH 4.5, NaCl 20 mmol/L): Difficult to filter
Situations of samples after preparation ([1]; 20 mmol/L NaAC-HAC pH 4.5, NaCl 150 mmol/L): Difficult to filter
Situations of samples after preparation ([1]; 20 mmol/L NaAC-HAC pH 4.5, NaCl 500 mmol/L): Difficult to filter,; also recorded: turbid
Situations of samples after preparation ([1]; 20 mmol/L NaAC-HAC pH 5.0, NaCl 0, 20, 150, 500 mmol/L): Turbid or precipitated
Situations of samples after preparation ([1]; 20 mmol/L citrate sodium-citric acid pH 5.5, NaCl 0, 20, 150, 500 mmol/L): Turbid or precipitated
Situations of samples after preparation ([1]; 20 mmol/L citrate sodium-citric acid pH 6.0, NaCl 0 mmol/L): Precipitate sticking
Situations of samples after preparation ([1]; 20 mmol/L citrate sodium-citric acid pH 6.0, NaCl 20 mmol/L): Precipitate sticking
Situations of samples after preparation ([1]; 20 mmol/L citrate sodium-citric acid pH 6.0, NaCl 150 mmol/L): Precipitate sticking
Situations of samples after preparation ([1]; 20 mmol/L citrate sodium-citric acid pH 6.0, NaCl 500 mmol/L): Precipitate sticking
Situations of samples after preparation ([1]; 20 mmol/L citrate sodium-citric acid pH 6.5, NaCl 0 mmol/L): Turbid
Situations of samples after preparation ([1]; 20 mmol/L citrate sodium-citric acid pH 6.5, NaCl 20 mmol/L): Turbid
Situations of samples after preparation ([1]; 20 mmol/L citrate sodium-citric acid pH 6.5, NaCl 150 mmol/L): Turbid
Situations of samples after preparation ([1]; 20 mmol/L citrate sodium-citric acid pH 6.5, NaCl 500 mmol/L): Turbid
Appearance of the sample ([1]; pH 3.0): no turbidity or precipitation
Appearance of the sample ([1]; pH 3.5 and pH 4.0, 0.5 M NaCl): turbidity
Appearance of the sample (no determination carried out) ([1]; pH 4.0, NaCl 29.22 mg/mL): Samples became turbid after formulation.
Appearance of the sample prepared ([1]; pH 4.5): clear and transparent
Appearance of the sample (no determination carried out) ([1]; pH 4.5, NaCl 29.22 mg/mL): Samples became turbid after formulation.
Appearance after formulation and heating treatment ([1]; pH 4.5, high salt concentration): turbidity
Appearance while the GLP-1 sample was prepared ([1]; pH 5.0 to 6.5): turbidity or precipitation
Appearance of the sample (no determination carried out) ([1]; pH 6.5, NaCl 0, 1.17, 8.77, 29.22 mg/mL): Turbidity was generated after formulation and
Appearance ([1]; pH value between about 4.5 and 6.5): turbidity or precipitation
Results of HPLC analysis, retention of the peptide content ([2]; pH 3.0, NaCl 0 mg/mL, 35° C.): 95.46%
Results of HPLC analysis, retention of the peptide content ([2]; pH 3.0, NaCl 0 mg/mL, 45° C.): 87.19%
Results of HPLC analysis, retention of the peptide content ([2]; pH 3.0, NaCl 1.17 mg/mL, 35° C.): 93.69%
Results of HPLC analysis, retention of the peptide content ([2]; pH 3.0, NaCl 1.17 mg/mL, 45° C.): 87.93%
Results of HPLC analysis, retention of the peptide content ([2]; pH 3.0, NaCl 8.77 mg/mL, 35° C.): 95.03%
Results of HPLC analysis, retention of the peptide content ([2]; pH 3.0, NaCl 8.77 mg/mL, 45° C.): 87.86%
Results of HPLC analysis, retention of the peptide content ([2]; pH 3.0, NaCl 29.22 mg/mL, 35° C.): 96.42%
